{"source": "paper PMC3918441", "molecular_target": "KDM5B PHD1 finger (wild type) (human)", "assay": "other fluorescence titration"}
{"substance": "H3K4me0 peptide (aa 1-12 of H3) (from UniProt P68431 2-13)", "values": [{"measurement": "Kd", "value": 1500, "unit": "nM"}]}
